Experimental data as given in PMC3288073, “Aptamers as a Sensitive Tool to Detect Subtle Modifications in Therapeutic Proteins”.

Columns and labels:
[1] = target: thrombin (Recothrom), recombinant human (Homo sapiens, UniProt P00734;P00734 315-363;364-622); experiment: ELISA (apparent Kd); 1 mM Mg2+; ELISA: 25 mM Tris, 10 mM NaCl, 1 mM MgCl2, pH 7.4, RT, 1 h; aptamers heated 95 C 10 min and refolded at RT 20 min; Kd unit (nM) from Results text. BLI: Octet RE
[2] = target: thrombin (Thrombin JMI), bovine plasma (Bos taurus, UniProt P00735;P00735 318-366;367-625); experiment: ELISA; 1 mM Mg2+; ELISA: 25 mM Tris, 10 mM NaCl, 1 mM MgCl2, pH 7.4, RT, 1 h; aptamers heated 95 C 10 min and refolded at RT 20 min; Kd unit (nM) from Results text. BLI: Octet RE; details: protein: native; copies: 1;1

| Binder | Kd [1] | binding result [2] |
| --- | --- | --- |
| CAGTCCGTGGTAGGGCAGGTTGGGGTGACTTCGTGGAA (structured_DNA) [Aptamer 60-18/38] | 1.48 nM | no binding |
| Aptamer 30-14 (structured_DNA) DNA: AGATGCCTGTCGAGCATGCTGTTGTGGTAGGGTTAGGGATGGTAGCGGTTGTAGCTAAACTGCTTTGTCGACGG | 2.75 nM | no binding |
| Aptamer 30-8 (structured_DNA) DNA: AGATGCCTGTCGAGCATGCTGTGAATAGGTAGGGTCGGATGGGCTACGGTGTAGCTAAACTGCTTTGTCGACGGG | 0.58 nM | no binding |
| TACCGTGGTAGGGAAGGTTGGAGTGTA (structured_DNA) [Aptamer 30-16/27] | 1.54 nM | no binding |
| ACCCGTGGTAGGGTAGGATGGGGTGGT (structured_DNA) [Aptamer 30-38/27] | 1.28 nM | no binding |
| GGTTGGTGTGGTTGG (structured_DNA) [Aptamer G15D] | 1.48 nM |  |
